Columns and labels:
Experiment in all cases: cell-based or functional assay
[1] = biological target: HIV-1 JRCSF envelope glycoprotein, on pseudotyped virus (HIV-1)
[2] = biological target: HIV-1 92HT594 envelope glycoprotein, on pseudotyped virus (HIV-1)
[3] = biological target: HIV-1 NL4-3 envelope glycoprotein, on pseudotyped virus (HIV-1)
[4] = biological target: amphotropic murine leukemia virus envelope protein, on pseudotyped virus (amphotropic murine leukemia virus)

Row | Substance | IC50 of virus infectivity (neutralization), U87 CD4/CCR5 cells [1] | IC50 of virus infectivity (neutralization), U87 CD4/CCR5 cells [2] | IC50 of virus infectivity (neutralization), U87 CD4/CXCR4 cells [2] | IC50 of virus infectivity (neutralization), U87 CD4/CXCR4 cells [3] | IC50 of virus infectivity (neutralization), U87 CD4/CCR5 cells [4] | IC50 of virus infectivity (neutralization), U87 CD4/CXCR4 cells [4]
1 | monoclonal antibody 2F5 | 2.1 µg/mL | 0.857 µg/mL | 0.748 µg/mL | 0.477 µg/mL | > 50 µg/mL | > 50 µg/mL
2 | monoclonal antibody 2G12 | 0.764 µg/mL | 1.94 µg/mL | 2.39 µg/mL | 0.473 µg/mL | > 50 µg/mL | > 50 µg/mL
3 | monoclonal antibody 4E10 | 7.91 µg/mL | 2.94 µg/mL | 2.67 µg/mL | 1.42 µg/mL | > 50 µg/mL | > 50 µg/mL

Source: patent US20050025779A1
